Consider 23 sequences from a protein production outcome set (Wang et al. 2014).
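Also: failed if final PepcDB status was selected cloned or expressed and not failed if soluble or beyond.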

This data set can be described thus: label from the status in PepcDB records.
Regarding “MNPITELLDATLWIGGVPILWREIIGNVFGLFSAWAGMRRIVWAWPIGIIGNALLFTVFMGGLFHTPQNLDLYGQAGRQIMFIIVSGYGWYQWSAAKRRALTPENAVAVVPRWASTKERAGIVIAAVVGTLSFAWIFQALGSWGPWADAWIFVGSILATYGMARGWTEFWLIWIAVDIVGVPLLLTAGYYPSAVLYLVYGAFVSWGFVVWLRVQKADKARALEAQESVTV”, the protein production entry is on record as “failed”.

As to “MGHGIEVLPDLFCYTIQIVNICFVGNPESNDFVLVDAGMPKCANEIISVAEDRFGTNSRPKAIILTHGHFDHVGGIIELIKYWDVPVYAHQMEIPFLTGQQSYPEPDSTVEGGMIAKMSPLFPNEPIDLGNSIKVLPTDGTVPHMPDFRWIHTPGHTPGHISLFREKDRTLIAGDAFVTVKQEYLYKVITQEQEISGPPRYLTTDWKAAKESVITLEKLKPLSAVTGHGIPMSGELLSTSLKTLAQEFDKIAVPDYGKYVDKKLEHHHHHH”, the protein production result is given as “failed”.

Regarding “MTTKDISRPVCILGLGLIGGSLLRDLHAANHSVFGYNRSRSGAKSAVDEGFDVSADLEATLQRAAAEDALIVLAVPMTAIDSLLDAVHTHAPNNGFTDVVSVKTAVYDAVKARNMQHRYVGSHPMAGTANSGWSASMDGLFKRAVWVVTFDQLFDGTDINSTWISIWKDVVQMALAVGAEVVPSRVGPHDAAAARVSHLTHILAETLAIVGDNGGALSLSLAAGSYRDSTRVAGTDPGLVRAMCESNAGPLVKALDEALAILHEAREGLTAEQPNIEQLADNGYRSRIRYEARSGQRRAKESVSPTITSSRPVLRLHPGTPNWEKQLIHAETLGARIEVF”, the protein production result is reported as “not failed”.

In the case of “MKKNILFIQGGGEGGYEADKHLVASLQQALGKDYAIQYPELSSDETAPDFGWPQQIGTLLSKTDDEIILAAHSLGASMLLKYLSEYVVKNKKIAGVFLLAAPFWEGKEEWKTGLKLKEHFSDTLPKDVPFFFYQCRDDEEVPFSHLEQYRKKLSRAAFREISSGGHTFHTDLSVLATDISAL”, the protein production result is “failed”.

In the case of “MSQLTFWFGCALVALIAEFVSGTFYLLMVALALACGGFAAWLGAPEPWQWLIASVSGAVGLLAIHRRRRSLMPPPPPQDDPDWGQQVEIRALTTPGHARIHYRGAEWDALLMDSRLDAGSTGYISGREGNLFKISSQQPQ”, the protein production result was “failed”.

With “RKEMTAACTPRRRIINLTSVLSLQEEINEQGHEVLREMLHNHSFVGCVNPQWALAQHQTKLYLLNTTKLSEELFYQILIYDFANFGVLRLSEPAPLFDLAMLALDSPESGWTEEDGPKEGLAEYIVEFLKKKAEMLADYFSLEIDEEGNLIGLPLLIDNYVPPLEGLPIFILRLATEVNWDEEKECFESLSKECAMFYSIRKQYISEESTLSGQQSEVPGSIPNSWKWTVEHIVYKALRSHILPPKHFTEDGNILQLANLPDLYKVFERC”, the protein production entry was “failed”.

For “VKPKGAFKAFTGEGQKLGSTAPQVLSTSSPAQQAENEAKASSSILIDESEPTTNIQIRLADGGRLVQKFNHSHRISDIRLFIVDARPAMAATSFILMTTFPNKELADESQTLKEANLLNAVIVQRLT”, the protein production result is on record as “failed”.

Turning to “MPTDRSTPATRHRLGGWMASEEAHMAAYREKIAGEARAHAGERLRTPAVQELARLFDDNAVLRMSLTRAIDEALESGRKLGYASIGELMTVIDHLMTYTPPFSESSLIVCPLNAFLDWPMCMPSGHAVFRDAAVNAHLKQVLNVWCDFLGGPHSCTHLDTSAPDGWFCDEARERLGLSQFQYQEDQPHWGFASWNDFFTRRFRADARPVTAPGDPHVIVSACEAQPYHAESNLKIRDKFWIKGQPYSLRDIFTPARLPLAERFVGGDLYQAYLSAYNYHRWHAPVRGTVTHAYRVDGTYYSVAEAEGPDPAGLNDSQGYMTAVAARAVIAIDCDDPGIGTVVGVFVGMGDVSSCVIEVMPGQRIDKGEEIGYFQYGGSTYCLLFEPGVIDHFVHAPPFDDDTPVVQVNAPVAIAR”, the protein production entry was “failed”.

Consider “MSEIDANYRALAQQVADKVAGRVIALDRLPESLLTAYRSLCDELLADRDGRFTRAWDQLPDSASSLFERCVFHGFYLANAWIQLSIVARDISELQDTDEAIAEQEYSGLYVRVAEAALKESVKKLKKARTDRSMYNSMREVMGI”, for which the protein production result is listed as “not failed”.

As for “MSLKNSSRSAVDPFIVMDVMEAARRAEEAGRRIIHMEVGQPGTGAPRGAVEALAKSLETDALGYTVALGLPALRQRIARLYGEWYGVDLDPGRVVITPGSSGGFLLAFTALFDSGDRVGIGAPGYPSYRQILRALGLVPVDLPTAPENRLQPVPADFAGLDLAGLMVASPANPTGTMLDHAAMGALIEAAQAQGASFISDEIYHGIEYEAKAVTALELTDECYVINSFSKYFSMTGWRVGWMVVPEDQVRVVERIAQNMFICAPHASQVAALAALDCDAELQANLDVYKANRKLMLERLPKAGFTRIAPPDGAFYVYADVSDLTDDSRAFAAEILEKAGVAVTPGLDFDPERGAGTLRFSYARATADIEEGLDRLEAFMQARGEGHHHHHH”, the protein production entry is on record as “not failed”.

“MKGLLPLAWFLACSVPAVQGGLLDLKSMIEKVTGKNALTNYGFYGCYCGWGGRGTPKDGTDWCCWAHDHCYGRLEEKGCNIRTQSYKYRFAWGVVTCEPGPFCHVNLCACDRKLVYCLKRNLRSYNPQYQYFPNILCS”: the protein production entry is “failed”.

Turning to “MEHGTESFWTDIKRYEDILAKDPGSYCFAPLSELYRKVGLLDDAIMTARTGIGQHPEYVGGYMALGRACFEKGERTESRAALEKVVRVTPDNLLAQKLLSQIYVDAGESDLARRCLEIILSLSPGDLESKLMLDAMCRQPRENADRADDLFNEMGAAAAIDLEDESLLEEIEIIEELVDEVVDEEDLAAFTAHAPPPPLAEESFADVLLDEEPVANADVPSPRDVLSTGTVADLYIAQGFPKKALAIYRDLLDADPLNEDIRNRMVDLKKRIDEDEARARESVLAEAVSATDTTAQIQGDLTADREAFKEEAASGFAVESAHEVDIPLEVAVSAESSLNVAEEKEASAAHVVSALEGWLDSIRRIRQCRSVLH”, the protein production entry was “failed”.

With “CSDLPEIQNGWKTTSHTELVRGARITYQCDPGYDIVGSDTLTCQWDLSWSSDPPFCEKTEE”, the protein production entry was “not failed”.

On to “MLLSHIMGMDYIMSIITLALLLLAEILVAIILIGVSIEICSYGWKKSNGIKYSCLLLSLLLGTASILGLLAAPAYFFIQLTEKAL”, for which the protein production result is reported as “failed”.

For the sequence “MKRDGHTHTEFCPHGTHDDVEEMILKAIELDFDEYSIVEHAPLSSEFMKNTAGNQEAVTTASMSMSDLPYYFKKMNQMKKKYASDLLIHIGFEVDYLIGYEDFTRDFLNEYGPQTDDGVLSLHFLEGQGGFRSIDFTAEDYNEGIVQFYGGFEQAQLVYLAGVKQSIEADLGAFKPRRIGHISLCQKFQQFFGADGRDFTAEVIAEFEAILALVKKRGYELDFNTAGLFKPLCKETYPPKEIVTLARALEIPFVYGSDSHGVADIGRGYNTYCQKLEHHHHHH”, the protein production result was “not failed”.

For “MNKKKFENLPKWNNFALFNFLAKDKENSLEVMEASRGFAVPGIVATNYETAEEAANVVKELQTTAPVISVGLGGGGDWQNWRDVLHIARLAPNSHINQPIETAGLTNDLLPETYTNALVRPTGKVGIVKLSSGDEITAEEAVDYCLSANIPSIKFMSIEGTKYLDELVYLTKVAAEKGIYGIEPAGGIGAENILEITTAIKTTGIPFFMPHIFGKTIDKATGRTKPEEIEKIFAALEGK”, the protein production result is recorded as “failed”.

“MAFPQRKRTPSFSSSVLDSVYRSIDESDGLQSDLKGSINENVSSSSSSPSPNKKDDKLTTLRRAIMDEEHWLYARSSTTTTNSSDSSSFSSSEAESYRTKRRLRKLAEQGKRSGDERQRTKRTVMDNDSRLFSKSDDDKKPKAVKIIEELKRSKQPVSPGARLTSFLNSIFQSNAKKVKLCSVGKTTDVKSSSSKSCFSRTRNKTDNNNNNCKKLERSIRFYPVRVTIDGDCRDYAQKHITRVRKPIPEFTAKKSVKEEIKTNDHHTEFTCITRNIGLKDFVRSNKYEGKEEEEDAWSHSSSDLFELDSYRIGMGRYLKELPVYETTDFKTNQAIARSLLL”: the protein production entry is recorded as “failed”.

With “MMLSMNRELIYLMLIFALLVIPRALQRFMVPAPLTCLLFGIGTMLVMGGKPHDDVIVLLSTLGISSLFLFAGLEVDLKALRRELWPLGVHLLVYSVALFCLGWLVWRYVGLTWQVAGLLALALLTPSPGFIIDSIGRLGLNEHERFWVVNKAIASELLALTVLFFVLQASDPWQMALSSGVLVALFVCLPLLFVALDRWVVPQAPGSEFSLLVMVGMIAAYATYKIGVYYLVGAFITGLIARLLHQRMPHLASEENLNAVRLFASFFVPFYFFRAGTNVSPQALSFEALGLGILITMVVLPLRIAVIWVQRRVLFGKGEDFRSSLRVSLALVPTLIFTLVLAGILRDRFSISEVLFGALLLYAAFTTLLPSLIFRLLSAWGVPSRSGDQASRETLPSSGMAG”, the protein production result was “failed”.

For “MKMKHMKPYTTMKTVLSTLAIALAFGPLHNAQACTRILYETGNQSYISGRSMDWADPSAATALWVFPKGMKRDGTVGDNPIKWSAKYGSIIVSFYDAGTADGMNEKGLVANMLYLKEAKWGDATKAGKPTLTAGAWAQYFLDNYATVEEAVTAMANPPFTIIAPSLPNGDAAALHLSISDVNGDSAIFEYIDGKLVIHHGSQYKVMTNSPTFDQQLALNTYWQQIGGSKFLPGTINAADRFVRASYALSASPKYRDNDLALASVFSQIRAVSVPLGITDPDRPNLAMTLWRTFADHTAKIYYFESAVFPAVSWLDMSKVDLTEGAAPKVVRVERGQPLAGELSAALKPAEPFKWLGAE”, the protein production result was “failed”.

For “PARIDTLEIKLLFAGDIMTHGPQIESAKCEGGRVYDFSSSFDTLASRIGAADLAIGNLETTFAGAPYSGYPTFSSPDAMGEALKNAGFDVLTTANNHTADKGKKGIIRTLDMLDSLGIAHTGSYRDIFDRDKMTPLILEVKGVRIAILAYTYGTNGMPVPAPTWVDPIDTVMIKKDLLRADSLGADYRIVQIHWGIEYRKEPDSEQLELARKLHRYGADAIIGSHPHVV”, the protein production result is “failed”.

Consider “MMFDFDKIIERQSDKCRKWDHAFVCSRFGDVPESFIPLWIADMDFTSPPAVIDGFRRIVEHGTFGYTWCFDEFYDAVIAFQRKRHQVEVEKSWITLTYGTVSTLHYTIQAYCKPGDSVMMNTPVYDPFAMAAQRQGVQVLANPLRVEENRYQLDFNLIEEQLKTYRPTLWFFCSPHNPSGRIWREEEIRQVSDLCQRYGTILVVDEVHAEHILDGKFVSCLTSGCAAQDNLIVLTSPNKALKLGGLKTSYSMIPDDSLRQRFRQQLEKNSITSPNLFGVWGIILAYQHGLPWLDALNDYLQGNARYLADALQTHFPAWKMMTPESSYLAWIDVSADESSATQLTQHFARQAGVVIEDGSHYVQNGENYLQINFGSQRYWLERSTNRMQ”, for which the protein production entry is “failed”.

For “MIMLNKQGITISLCMIVRDEEETIARCLETVEKIVDEIIVVDTGSVDRTKEIVEKYTSNIYDFQWIDDFAAARNFSFSKATQEYILWLDADDVLLEDAQEALKLLKRELDPKIDAVSMPYHLAMDSNGKPLYCTKRNRLVKREKQFQWFGKVHEYLAISGEVFSSNVAITHKKEKKVTNRNLKIFQNTVAAGEELSPRDLFYYANESTDNQKYDDAVLLYETFLNQDEGWYEEKIYACGKLGDCYAKLGMWEKAIESCVKSFRYDVPRGENCTRIGYIYMEQEKYNEAIFWFKLATEVPMATESPFHSPASYTWLPYLQMCICYSRLGEQDKAYYYNELAASYVPNNAAIEYNRKYFRGVFDKPYKVLEHHHHHH”, the protein production entry is listed as “failed”.

For “MDTYMIDAELEHYLGERLSSSSRQALCRLHVRACARFHGAELEEYRRRLRAHARAYARLGRMLQSPFRHMETALFLSSFTLFVAGIIMVVNGDLSALVACGTAAGLVGMIECARKLAGHWHRYGVMEAVYRELEEQLANG”, the protein production entry was “failed”.
